Results on one molecule are retold here after US20030134779A1, “Method and composition for treatment and/or prevention of antibiotic-resistant microorganism infections” (priority 2002, published 2003).

Common to all, as to assay: Bacterial growth in MHB
Assay type in all cases: cell-based, Staphylococcus aureus

One experiment has as its system S. aureus PC-1. As to conditions: LF or LFC alone, sub-MIC. How it is done: (§1) The effect of LF or LFC at concentration sub-MICs alone or in combination with sub-MICs of antibiotics on bacterial growth rate of S. aureus, E. coli and K. pneumoniae was determined by monitoring bacterial cultures in MHB with the O.D.600 nm or by the count of colony forming unit per ml (cfu/ml). A volume of 2.5 ml of overnight cultures in MHB adjusted to 0.5-1 McFarland standard in saline were used to inoculate a final volume of 25 ml of fresh MHB containing the desired concentration of tested compounds. All flasks were then incubated at 37° C. with agitation (200 rpm) for 9 h. Aliquots were removed every hour to determine the culture turbidity using the spectrophotometer Philips PU 8800 (Pye Unican Ltd, Cambridge, UK). The combined antibiotic effect on bacterial growth was also determined using concentrations of LF in the presence of different concentrations of antibiotics. Briefly, a volume of 3 ml of fresh MHB containing desired concentration of drugs was adjusted to an optical density of 0.4 at 540 nm after an overnight culture. The culture was then incubated at 37° C with agitation (200 rpm). After incubation, aliquots were removed to determine the culture turbidity (OD540nm) or cfu/ml. To determine the influence of the level of iron on of the growth inhibition by the test compound, 5 μM of FeCl3 were added to the media.

The subject of experiment [1] is S. aureus strains ATCC 25923, SHY97-3906, −4242 and RFT-5. Particulars: LF alone, sub-MIC (9.1, 36.6, 250 or 500 μg/ml); 4, 8 and 18-h; except for strain SHY97-3906. Here is the method:
as §1

The test system of another experiment is S. aureus ATCC 25923. Particulars: LF alone, sub-MIC. Here is the method:
as §1

B1: LF: bovine lactoferrin, 80-kDa iron-binding glycoprotein found in milk (protein, UniProt P24627 20-708, looked up)
Lactotransferrin: APRKNVRWCTISQPEWFKCRRWQWRMKKLGAPSITCVRRAFALECIRAIAEKKADAVTLDGGMVFEAGRDPYKLRPVAAEIYGTKESPQTHYYAVAVVKKGSNFQLDQLQGRKSCHTGLGRSAGWIIPMGILRPYLSWTESLEPLQGAVAKFFSASCVPCIDRQAYPNLCQLCKGEGENQCACSSREPYFGYSGAFKCLQDGAGDVAFVKETTVFENLPEKADRDQYELLCLNNSRAPVDAFKECHLAQVPSHAVVARSVDGKEDLIWKLLSKAQEKFGKNKSRSFQLFGSPPGQRDLLFKDSALGFLRIPSKVDSALYLGSRYLTTLKNLRETAEEVKARYTRVVWCAVGPEEQKKCQQWSQQSGQNVTCATASTTDDCIVLVLKGEADALNLDGGYIYTAGKCGLVPVLAENRKSSKHSSLDCVLRPTEGYLAVAVVKKANEGLTWNSLKDKKSCHTAVDRTAGWNIPMGLIVNQTGSCAFDEFFSQSCAPGADPKSRLCALCAGDDQGLDKCVPNSKEKYYGYTGAFRCLAEDVGDVAFVKNDTVWENTNGESTADWAKNLNREDFRLLCLDGTRKPVTEAQSCHLAVAPNHAVVSRSDRAAHVKQVLLHQQALFGKNGKNCPDKFCLFKSETKNLLFNDNTECLAKLGGRPTYEEYLGTEYVTAIANLKKCSTSPLLEACAFLTR
Take B1: the growth entry in the experiment on S. aureus PC-1 is reported as “delayed growth”; in experiment [1], “did not affect the growth”; in the experiment with S. aureus ATCC 25923, “delayed growth”.
